Results: the RNAGym collection of RNA variant scans (doi:10.7554/elife.80360)

B1: CPEB3 Ribozyme (parent)
chain: GGGGGCCACAGCAGAAGCGUUCACGUCGCGGCCCCUGUCAGAUUCUGGUGAAUCUGCGAAUUCUGCUGU

Variants of: B1
Test: self-cleavage, relative activity (ratio to wild type); higher = more cleavage; co-transcriptional
Work on G31A C63U yielded a self-cleavage of 0.895. With G31A C63G the self-cleavage was 0.391. Work on G31U U38A yielded a self-cleavage of 0.537. Variant G31U U38G has a self-cleavage of 0.124. For G31U U38C, the self-cleavage was 0.505. Work on G30U C35A yielded a self-cleavage of 0.191. G30U C35G gave a self-cleavage of 0.213. G31A C57A showed a self-cleavage of 0.307. For G31A C57U, the self-cleavage was 0.34. With G31A C32A the self-cleavage was 0.637. For G31A C32U, the self-cleavage was 0.534. Work on G31U G58C yielded a self-cleavage of 0.611. Work on G30U C39A yielded a self-cleavage of 0.273. With G30U C39G the self-cleavage was 0.29. In the case of G30U C39U, the self-cleavage is reported as 0.252. Work on G30C U62G yielded a self-cleavage of 0.343. G30C U62A gave a self-cleavage of 0.259. G31A C34A gave a self-cleavage of 0.239. Work on G30C U61G yielded a self-cleavage of 0.304. G30U U44C gave a self-cleavage of 0.364. G30U U44G showed a self-cleavage of 0.308. For G30U U44A, the self-cleavage was 0.248. With G31U U43A the self-cleavage was 0.443. For G31U U43C, the self-cleavage was 0.393. With G31U C54U the self-cleavage was 0.729. For G31U C54G, the self-cleavage was 0.33. In the case of G31C G48C, the self-cleavage is reported as 0.222. G31C G48U gave a self-cleavage of 0.247. With G31C G48A the self-cleavage was 0.24. For G30C G31A, the self-cleavage was 0.252. With G30C G31C the self-cleavage was 0.136. Work on G31C A40G yielded a self-cleavage of 0.229. G31U G47U showed a self-cleavage of 0.795. For G31U G47A, the self-cleavage was 0.787. Variant G31U G47C has a self-cleavage of 0.684. Work on G30U U46A yielded a self-cleavage of 0.44. Variant G30U U46C has a self-cleavage of 0.39. Work on G31A U61A yielded a self-cleavage of 0.364. With G31A U61G the self-cleavage was 0.381. For G31U C57U, the self-cleavage was 0.229. Variant G31U C57A has a self-cleavage of 0.208. G31C G41C showed a self-cleavage of 0.173. Variant G31C G41A has a self-cleavage of 0.201. Variant G30U U43G has a self-cleavage of 0.281. In the case of G30U U43A, the self-cleavage is reported as 0.311. Variant G30U U43C has a self-cleavage of 0.38. Variant G30U U36C has a self-cleavage of 0.179. Variant G30U U36A has a self-cleavage of 0.198. For G30U U36G, the self-cleavage was 0.175. With G31A C35G the self-cleavage was 0.26. Variant G31C U38C has a self-cleavage of 0.191. G31C U38G showed a self-cleavage of 0.191. G31A A51G gave a self-cleavage of 0.928. G31A A51C gave a self-cleavage of 0.897. Work on G31A A51U yielded a self-cleavage of 0.879. For G31C G47C, the self-cleavage was 0.271. Work on G31C G47A yielded a self-cleavage of 0.249. In the case of G31C G47U, the self-cleavage is reported as 0.239. Work on G31U U36A yielded a self-cleavage of 0.189. For G31U U36G, the self-cleavage was 0.738. G31C U46C showed a self-cleavage of 0.164. G31C U46G gave a self-cleavage of 0.205. With G31C U46A the self-cleavage was 0.263. In the case of G30C G56A, the self-cleavage is reported as 0.464. Variant G30U U69A has a self-cleavage of 0.666. In the case of G31U A60U, the self-cleavage is reported as 0.229. Work on G31U A60G yielded a self-cleavage of 0.277. Variant G30C G65C has a self-cleavage of 0.431. In the case of G31U A40G, the self-cleavage is reported as 0.457. Variant G31U A40C has a self-cleavage of 0.254. G30U C33U showed a self-cleavage of 0.295. Work on G30U C33A yielded a self-cleavage of 0.233. With G30U C33G the self-cleavage was 0.192. For G31C U64A, the self-cleavage was 0.111. In the case of G31C U64C, the self-cleavage is reported as 0.273. In the case of G31U G37C, the self-cleavage is reported as 0.189. With G31U G37U the self-cleavage was 0.163. G31C U55C showed a self-cleavage of 0.225. G31C U55A gave a self-cleavage of 0.188. G31U G68A gave a self-cleavage of 0.957. With G31U C33G the self-cleavage was 0.2. Variant G31U C33U has a self-cleavage of 0.4. G30C G48C showed a self-cleavage of 0.642. G30C G48A showed a self-cleavage of 0.694. With G31U C35G the self-cleavage was 0.252. G30U U49G gave a self-cleavage of 0.352. G30U U49C showed a self-cleavage of 0.456. Variant G30U U49A has a self-cleavage of 0.365. G31C C33A gave a self-cleavage of 0.338. G31C C33G showed a self-cleavage of 0.443. With G31C A52G the self-cleavage was 0.197. In the case of G31C A52U, the self-cleavage is reported as 0.184. G31C A52C gave a self-cleavage of 0.266. Variant G30U G47U has a self-cleavage of 0.417. G31C C63G showed a self-cleavage of 0.133. G31C C63A showed a self-cleavage of 0.233. In the case of G31C C63U, the self-cleavage is reported as 0.251. With G31C C45G the self-cleavage was 0.245. With G31C C45A the self-cleavage was 0.25. With G31C C45U the self-cleavage was 0.263. With G31U A52G the self-cleavage was 0.775. Work on G31U A52U yielded a self-cleavage of 0.655. With G30U A59U the self-cleavage was 0.222. Variant G30U A59G has a self-cleavage of 0.309. Variant G30U A59C has a self-cleavage of 0.172. For G30U G65U, the self-cleavage was 0.162. With G30U G65C the self-cleavage was 0.214. Work on G31C C54A yielded a self-cleavage of 0.189. Work on G31C C54G yielded a self-cleavage of 0.183. Work on G31A U67A yielded a self-cleavage of 0.951. With G31A U67C the self-cleavage was 0.984. For G31C G65A, the self-cleavage was 0.147. Work on G31C G65U yielded a self-cleavage of 0.136. For G30U G31C, the self-cleavage was 0.149. Variant G30U G31A has a self-cleavage of 0.196. In the case of G31U G65U, the self-cleavage is reported as 0.352. In the case of G31U G65C, the self-cleavage is reported as 0.358. G31U G48U gave a self-cleavage of 0.797. Variant G31U G48A has a self-cleavage of 0.756. In the case of G31U G48C, the self-cleavage is reported as 0.812. Variant G31A U53C has a self-cleavage of 0.58. In the case of G31A U53A, the self-cleavage is reported as 0.554. Work on G30U U64G yielded a self-cleavage of 0.219. Work on G30U U64A yielded a self-cleavage of 0.288. G30U C57U gave a self-cleavage of 0.207. For G30U C57A, the self-cleavage was 0.235. Variant G31A U43C has a self-cleavage of 0.601. For G31A U43G, the self-cleavage was 0.524. In the case of G31A U43A, the self-cleavage is reported as 0.59. With G31A G50A the self-cleavage was 0.95. With G31A G50C the self-cleavage was 0.84. G31A G50U gave a self-cleavage of 0.889. With G31U A51G the self-cleavage was 0.636. G31U C66U showed a self-cleavage of 0.732. G31U C66G gave a self-cleavage of 0.415. G31U C66A showed a self-cleavage of 0.489. G31A U38C showed a self-cleavage of 0.762. Work on G31A C54G yielded a self-cleavage of 0.436. Work on G31A C54A yielded a self-cleavage of 0.489. G31A C54U showed a self-cleavage of 0.793. For G31C U43C, the self-cleavage was 0.289. Work on G31C U43G yielded a self-cleavage of 0.276. With G31U G56U the self-cleavage was 0.568. For G31U G56A, the self-cleavage was 0.386. In the case of G31C U36A, the self-cleavage is reported as 0.155. For G31C U36G, the self-cleavage was 0.475. G31C U36C gave a self-cleavage of 0.203. G30U C54G showed a self-cleavage of 0.248. Work on G30U C54A yielded a self-cleavage of 0.248. Variant G30U C54U has a self-cleavage of 0.339. G30U G41A gave a self-cleavage of 0.216. G30U G41U showed a self-cleavage of 0.229. Variant G31C G58A has a self-cleavage of 0.21. G31A C39U showed a self-cleavage of 0.589. For G31A C39G, the self-cleavage was 0.733. With G31A G47U the self-cleavage was 0.915. G30C U55A gave a self-cleavage of 0.466. For G30C U55G, the self-cleavage was 0.323. In the case of G30C U55C, the self-cleavage is reported as 0.388. With G31C G68U the self-cleavage was 0.392. In the case of G31C G68C, the self-cleavage is reported as 0.414. Variant G31U A42C has a self-cleavage of 0.458. G31U A42G showed a self-cleavage of 0.692. G31A C45G showed a self-cleavage of 0.761. With G31A C45U the self-cleavage was 0.888. Variant G31A C45A has a self-cleavage of 0.833. G30C U67A gave a self-cleavage of 0.869.
